Test [1] deals with T1, synthetic PSMα1 peptide (phenol soluble modulin α1) (Staphylococcus aureus, N-terminal formylation (fMet 1)).
T1 peptide: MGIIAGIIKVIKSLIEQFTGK
Kind of test: cell-based or functional assay.

For test [2], the target named is T1, synthetic PSMα1 peptide (phenol soluble …). Kind of test: BLI (BLItz), AP90 immobilized on APS tip, PSMα1 (50 µM) pre-incubated 146 h (transition region between α-sheet and β-sheet). On the procedure:
(§1) All biolayer interferometry (BLI) experiments were performed on a BLItz™ biosensor system (ForteBio) using aminopropylsilane (APS) sensors. Sensors were hydrated in ddH₂O+22 μM ThT for 10 minutes prior to use. Designed peptides (dissolved in ddH₂O+22 μM ThT) were loaded onto the APS tip, a baseline was established in ddH₂O+22 μM ThT, and then the association of PSMα1 (prepped with DMSO+ddH₂O+22 μM ThT, as in the fibrillization assay at various pre-incubation times) was monitored over a period of three minutes. Dissociation was subsequently measured in ddH₂O+22 μM ThT, and the equilibrium dissociation constant (KD) was calculated using the BLItz™ analysis software (ForteBio).

Test [3] has the same target. Kind of test: BLI (BLItz), AP90 (180 µM) immobilized on APS tip, PSMα1 (50 µM) in solution, samples near the end of the aggregation lag phase (α-sheet-rich, about 48 h); lower end of the range; PSMα1 samples near the end of the aggregation lag phase. On the procedure:
as §1

Positions of bridges follow the written chain, without caps; N, C: chain ends. Non-standard residues stand in square brackets, D forms with d.

B1: AP407 (designed binder)
peptide: Ac-RGE[dM]N[dL]C[dW]MNEYSGW[dC]M[dN]L[dK]MGR-NH2
modifications: disulfide 7-16
SMILES: CSCC[C@H](NC(=O)[C@@H](CCCCN)NC(=O)[C@H](CC(C)C)NC(=O)[C@@H](CC(N)=O)NC(=O)[C@H](CCSC)NC(=O)[C@H]1CSSC[C@H](NC(=O)[C@@H](CC(C)C)NC(=O)[C@H](CC(N)=O)NC(=O)[C@@H](CCSC)NC(=O)[C@H](CCC(=O)O)NC(=O)CNC(=O)[C@H](CCCNC(=N)N)NC(C)=O)C(=O)N[C@H](Cc2c[nH]c3ccccc23)C(=O)N[C@@H](CCSC)C(=O)N[C@@H](CC(N)=O)C(=O)N[C@@H](CCC(=O)O)C(=O)N[C@@H](Cc2ccc(O)cc2)C(=O)N[C@@H](CO)C(=O)NCC(=O)N[C@@H](Cc2c[nH]c3ccccc23)C(=O)N1)C(=O)NCC(=O)N[C@@H](CCCNC(=N)N)C(N)=O
For B1, the “inhibition of PSMα1 amyloid formation (ThT fluorescence), water + <1% DMSO, 30 µM PSMα1, 1:3 molar ratio PSMα1:AP407” value in test [1] came out at 69%.

B2: AP90 (Alternating Peptide #90) (designed binder)
peptide: Ac-RGE[dM]N[dL]S[dW]MNEYSGW[dT]M[dN]L[dK]MGR-NH2
SMILES: CSCC[C@H](NC(=O)[C@@H](CCCCN)NC(=O)[C@H](CC(C)C)NC(=O)[C@@H](CC(N)=O)NC(=O)[C@H](CCSC)NC(=O)[C@H](NC(=O)[C@H](Cc1c[nH]c2ccccc12)NC(=O)CNC(=O)[C@H](CO)NC(=O)[C@H](Cc1ccc(O)cc1)NC(=O)[C@H](CCC(=O)O)NC(=O)[C@H](CC(N)=O)NC(=O)[C@H](CCSC)NC(=O)[C@@H](Cc1c[nH]c2ccccc12)NC(=O)[C@H](CO)NC(=O)[C@@H](CC(C)C)NC(=O)[C@H](CC(N)=O)NC(=O)[C@@H](CCSC)NC(=O)[C@H](CCC(=O)O)NC(=O)CNC(=O)[C@H](CCCNC(=N)N)NC(C)=O)[C@H](C)O)C(=O)NCC(=O)N[C@@H](CCCNC(=N)N)C(N)=O
notes: Designed α-sheet single-turn hairpin peptide with alternating L/D residues in the strands; Made by solid phase synthesis; In the BLI assay it was loaded on an aminopropylsilane (APS) sensor tip at 180 µM; also called α1
On to B2, for which, in test [1], the “inhibition of PSMα1 amyloid formation (ThT fluorescence), water + <1% DMSO, 30 µM PSMα1, 1:4 molar ratio PSMα1:AP90” value was 81% and the “inhibition of PSMα1 fibril formation (ThT fluorescence), LB medium + <1% DMSO, 1:4 molar ratio PSMα1:AP90” value worked out at 73%. Also, the “drop in binding affinity against α-sheet-rich PSMα1 (end of lag phase)” value in test [2] was around 100 fold. Also, the dissociation constant (Kd) (as a rule, the constant that tells how readily two partners part at equilibrium) in test [3] fell in the range of 1 to 1.5 µM.

The values are drawn from patent US20240050517A1 (University of Washington, published 2024).
